Measurements: the supplement of paper PMC9170038

Experiments:
MS2 coat protein [1] = assay: apparent KD of MS2 coat protein; designed switch direction (-1 OFF switch, 1 ON switch): -1; higher = weaker reporter binding; details: Eterna round: R98
Procedure: (§1)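 RNA-MaP: designed FMN/MS2 RNA switches (84 nt design region) are transcribed on-chip within common flanks and titrated with SNAP-549-labelled MS2 coat protein (about 1-3000 nM) in 100 mM Tris pH 7.5, 80 mM KCl, 4 mM MgCl2, without or with 200 uM FMN. Median apparent KD per design; activation ratio = KD,OFF / KD,ON.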

MS2 coat protein [2] = assay: apparent KD of MS2 coat protein; higher = weaker reporter binding; details: Eterna round: R101
Procedure: as §1

## GCACUGGAUGUAGGAUAUCAGGACGAUAAGUCCUGAGAAGGACAUGAGGAUCACCCAUGUGAUAAUACCAGUGCAAAUAAUAUA [Denovo Exng1 26]
MS2 coat protein [1]; input ligand: FMN 200 uM
  apparent KD of MS2 coat protein: 119 nM
MS2 coat protein [1]; input ligand: none
  apparent KD of MS2 coat protein: 19.5 nM

## AGACUCAGAUGGUGCCAGCUUGCACAUGAGGAUCACCCAUGUCAGGAUAUCUUCGCUCCGAGAGAAGAGAAGGGACAAGAAUUU [Soedon]
MS2 coat protein [1]; input ligand: FMN 200 uM
  apparent KD of MS2 coat protein: 234 nM
MS2 coat protein [1]; input ligand: none
  apparent KD of MS2 coat protein: 79.4 nM

## UCGAACGGAAACAAAGUCGAUAGACAUGAGGAUCACCCAUGUCAGGAUAUGCCUACUAAAAGUAGGCAGAAGGGACGCGUUCGA [Contusion 7 - Jieux - Exclusion NG 3]
MS2 coat protein [1]; input ligand: FMN 200 uM
  apparent KD of MS2 coat protein: 18 nM
MS2 coat protein [1]; input ligand: none
  apparent KD of MS2 coat protein: 20.8 nM

## CCAUAAAAGAUCCAAAAUUACAACAUGAGGAUCACCCAUGUGCAGGAUAUCGUGAAAGUAAAGUACGAGAAGGGCAGACACUGC [salish99_ExNG3_r2_008]
MS2 coat protein [1]; input ligand: FMN 200 uM
  apparent KD of MS2 coat protein: 139 nM
MS2 coat protein [1]; input ligand: none
  apparent KD of MS2 coat protein: 154 nM

## AAAUUUAACGAAGGAUAUGCUGACAUGAGGAUCACCCAUGUGUGCCUUGUGUUGCUGCCUCGGGAGCAGAAGGUCGUAUACAUA [Ex NG2 #11]
MS2 coat protein [1]; input ligand: FMN 200 uM
  apparent KD of MS2 coat protein: 613 nM
MS2 coat protein [1]; input ligand: none
  apparent KD of MS2 coat protein: 454 nM

## UAUAUAAUUAAGAGCUGGAAAAUCACAUGAGGAUCACCCAUGUAGGAUAUCAGCACGAUAAGUGCUGAGAAGGACUACCAGCUC [Denovo 79]
MS2 coat protein [1]; input ligand: FMN 200 uM
  apparent KD of MS2 coat protein: 15.8 nM
MS2 coat protein [1]; input ligand: none
  apparent KD of MS2 coat protein: 20 nM

## AGAUGACAAAGUCAUCUCGCGCAGACAUGAGGAUCACCCAUGUAGGAUAUACUACUCAAAGAGUAGUAGAAGGACAUGUGUCUU [Ex NG2 #57]
MS2 coat protein [1]; input ligand: FMN 200 uM
  apparent KD of MS2 coat protein: 111 nM
MS2 coat protein [1]; input ligand: none
  apparent KD of MS2 coat protein: 32.5 nM

## GUGAGGCAUCUACACGCUCGGGCCGAGGAUAUACAUGAGGAUCACCCAUGUAACAGUGCGGUCAUGUAGAAGGCGGCUAAAUUA [Rianrare] (puzzle (switch architecture): Small Loop Exclusion NG 3)
MS2 coat protein [2]; input ligand: FMN 200 uM
  apparent KD of MS2 coat protein: 42.3 nM
MS2 coat protein [2]; input ligand: none
  apparent KD of MS2 coat protein: 11.1 nM

## UCAUACAUGACAUGACAUGACAUGAGGAUCACCCAUGUUUACAAGGAUAUGUUGAUGAAACAUCAACAGAAGGUGUAAUGGACU [xclu_NG3_cac7]
MS2 coat protein [1]; input ligand: FMN 200 uM
  apparent KD of MS2 coat protein: 232 nM
MS2 coat protein [1]; input ligand: none
  apparent KD of MS2 coat protein: 136 nM

## AAAUAACUUGAAGGAUAUGACCCUCGAGGUGACUAAAAGUCACCUCGAGGGUCAGAAGGUCGAGGAUCACCCGAUCUAAAUAAA [#SharedSequence SLExNG1: 3-1] (puzzle (switch architecture): Small Loop Exclusion NG 1)
MS2 coat protein [2]; input ligand: FMN 200 uM
  apparent KD of MS2 coat protein: 24.6 nM
MS2 coat protein [2]; input ligand: none
  apparent KD of MS2 coat protein: 10.2 nM

## ACAUGGAAUCGAGGAUAUGACGCGGAAACGAAGUCAGAAGGCGAAAAUUUAACUCGAUAAUACAUGAGGAUCACCCAUGUAAUU [AK-NGROCr2-ExNG1-3]
MS2 coat protein [1]; input ligand: FMN 200 uM
  apparent KD of MS2 coat protein: 24.6 nM
MS2 coat protein [1]; input ligand: none
  apparent KD of MS2 coat protein: 19.7 nM
